# Experimental data as given in patent US20020165381A1, “Human androgen receptor variants” (priority 2000, published 2002).
# T1: AR (Homo sapiens, UniProt P10275)
# T1 sequence (P10275 1-920): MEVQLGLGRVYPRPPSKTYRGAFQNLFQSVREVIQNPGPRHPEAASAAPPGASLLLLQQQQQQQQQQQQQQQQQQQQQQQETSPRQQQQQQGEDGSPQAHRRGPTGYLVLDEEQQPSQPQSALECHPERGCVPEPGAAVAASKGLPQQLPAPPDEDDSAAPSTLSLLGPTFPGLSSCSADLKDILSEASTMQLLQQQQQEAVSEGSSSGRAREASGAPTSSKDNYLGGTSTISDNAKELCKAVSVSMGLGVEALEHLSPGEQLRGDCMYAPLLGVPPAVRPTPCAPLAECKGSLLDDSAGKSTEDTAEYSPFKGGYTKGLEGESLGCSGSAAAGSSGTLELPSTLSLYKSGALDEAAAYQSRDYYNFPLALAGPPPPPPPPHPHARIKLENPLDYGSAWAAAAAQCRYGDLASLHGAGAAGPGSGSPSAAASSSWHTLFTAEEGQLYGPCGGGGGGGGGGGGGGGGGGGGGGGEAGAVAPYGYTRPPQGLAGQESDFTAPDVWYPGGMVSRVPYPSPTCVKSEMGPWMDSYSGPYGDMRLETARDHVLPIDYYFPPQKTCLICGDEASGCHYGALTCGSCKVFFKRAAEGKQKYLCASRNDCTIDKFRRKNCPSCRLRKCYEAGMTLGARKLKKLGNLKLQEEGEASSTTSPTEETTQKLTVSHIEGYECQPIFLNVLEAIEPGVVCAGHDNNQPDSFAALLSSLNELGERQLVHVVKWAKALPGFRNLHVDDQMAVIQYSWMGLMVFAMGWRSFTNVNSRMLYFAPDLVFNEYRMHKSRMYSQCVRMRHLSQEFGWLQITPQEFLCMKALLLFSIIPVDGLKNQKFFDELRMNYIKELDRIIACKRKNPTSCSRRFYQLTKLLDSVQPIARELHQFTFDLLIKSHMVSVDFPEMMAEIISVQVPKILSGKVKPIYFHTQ
# How the values were obtained:
# AR [1] = target: T1, AR; assay: Transrepressing activity of AR42 and AR32 in CV-1 cells (luciferase reporter, Example 5); type: cell-based; design: expressed in transfected cells; host or cells: CV-1 cells; details: constant amount of pSG5-AR, varying amounts of pSG5-AR42 or pSG5-AR32, after treatment with an androgen
# Text: (§1) A vector for the transient expression of AR42, AR32 or AR is built in the pSG5 plasmid (Stratagene). A constant amount of pSG5-AR and varying amounts of pSG5-AR42 or pSG5-AR32 are transfixed in CV-1 cells. In the control, a pSGS plasmid, which contains an irrelevant cDNA of similar length, is cotransfixed with the pSG5-AR. In addition, a reporter plasmid, which contains one or more copies of a steroid-response element or a selective androgen-response element, coupled to a luciferase reporter gene, is cotransfixed. After treatment with an androgen, an increase in the reporter gene activity is measured.
# [2] = test system: MMTV promoter reporter plasmid in PC-3 cells; assay: Transactivation reporter assay: pSG5-AR42 co-transfixed with MMTV promoter reporter plasmid in PC-3 cells, treated with androgens; type: cell-based, human; details: 100 ng pSG5-AR42 + 100 ng MMTV reporter plasmid, R1881, testosterone or DHT at 10^-7 M
# Procedure: 100 ng of pSG5-AR42 was co-transfixed in PC-3 together with 100 ng of a reporter plasmid, which contains the MMTV promoter. These cells were then treated with various androgens (R1881: metribolone; T: testosterone; DHT: 5α-dihydrotestosterone) with a final concentration of 10^−7 M.
# A vector for the transient expression of AR42 or AR32 is built in the pSG5 plasmid (Stratagene). This vector is transfixed in CV-1 or PC-3 cells. Parallel to this, a reporter plasmid that contains one or more copies of a steroid response element or a selective androgen response element, coupled to a luciferase reporter gene, is cotransfixed. To find specific effectors of AR42 or AR32, a high-throughput screening of substance banks is to be performed. Substances that trigger the activity of the reporter gene at a concentration of 10^−6 M or less are further processed. The search for receptor antagonists is performed in the presence of 10^−9 M androgen, e.g., R1881. Substances are selected that at least divide in half the androgen induction at a concentration of 10^−6 M or less.
# AR [3] = target: T1, AR; assay: Transrepressing activity: pSG5-AR and different amounts of pSG5-AR42 co-transfixed in PC-3 cells with MMTV reporter plasmid; type: cell-based; design: expressed in transfected cells; details: 10 ng pSG5-AR, different amounts of pSG5-AR42, 100 ng MMTV reporter plasmid, R1881 10^-9 M
# Procedure: 10 ng of pSG5-AR and different amounts of pSG5-AR42 were co-transfixed in PC-3 cells. In addition, 100 ng of a reporter plasmid, which contains the MMTV promoter, was transfixed.
# as §1
Molecule,transrepressing activity (reporter gene activity of stimulated AR) (AR [1]),transactivating function (reporter gene activity) [2],transrepressing activity (reporter gene activity of stimulated AR) (AR [3])
"AR32: androgen receptor variant according to the invention with the amino acid sequence indicated in Seq ID NO 4 (protein, listed as Homo sapiens) MILWLHSLETARDHVLPIDYYFPPQKTCLICGDEASGCHYGALTCGSCKVFFKRAAEGKQKYLCASRNDCTIDKFRRKNCPSCRLRKCYEAGMTLGARKLKKLGNLKLQEEGEASSTTSPTEETTQKLTVSHIEGYECQPIFLNVLEAIEPGVVCAGHDNNQPDSFAALLSSLNELGERQLVHVVKWAKALPGFRNLHVDDQMAVIQYSWMGLMVFAMGWRSFTNVNSRMLYFAPDLVFNEYRMHKSRMYSQCVRMRHLSQEFGWLQITPQEFLCMKALLLFSINCERAASVHF",inhibit these transactivating effects of stimulated AR,,
"AR42: androgen receptor variant according to the invention with the amino acid sequence indicated in Seq ID NO 2 (protein, listed as Homo sapiens) MILWLHSLETARDHVLPIDYYFPPQKTCLICGDEASGCHYGALTCGSCKVFFKRAAEGKQKYLCASRNDCTIDKFRRKNCPSCRLRKCYEAGMTLGARKLKKLGNLKLQEEGEASSTTSPTEETTQKLTVSHIEGYECQPIFLNVLEAIEPGVVCAGHDNNQPDSFAALLSSLNELGERQLVHVVKWAKALPGFRNLHVDDQMAVIQYSWMGLMVFAMGWRSFTNVNSRMLYFAPDLVFNEYRMHKSRMYSQCVRMRHLSQEFGWLQITPQEFLCMKALLLFSIIPVDGLKNQKFFDELRMNYIKELDRIIACKRKNPTSCSRRFYQLTKLLDSVQPIARELHQFTFDLLIKSHMVSVDFPEMMAEIISVQVPKILSGKVKPIYFHTQ",inhibit these transactivating effects of stimulated AR,does not have any transactivating function,inhibited the transactivating effects of stimulated AR
